{
  "source": "patent US20030170704A1",
  "about": "“Substance capable of controlling the inclusion of exon 10 of the tau gene, and its therapeutic use against tauopathies” (Max-Planck-Gesellschaft Zur Foerd Der Wissen. E.V., priority 1999, published 2003)",
  "data": [
    {"test_system": "tau exon 10 inclusion (SV10 minigene)", "assay": "RT-PCR of tau exon 10 minigene SV10 1:1 co-transfected with splicing regulator cDNA plasmids in COS cells", "format": "cell-based, human", "details": "1:1 co-transfection, FIG. 4", "experimental": "Plasmid DNA was purified by cesium chloride banding (Sambrook et al., 1989). The plasmids obtained in Examples 1 and 2 were introduced into cells by the lipofection method (LT1, Panvera).\nPlates (100 mm) that had reached ˜30% confluence were transfected with 10 μg of construct DNA or 5 μg of each plasmid for co-transfections. The medium was changed 16 h after transfection, without glycerol shock.\nTotal RNA was isolated 48 h post-transfection by the TRIzol method (Life Technologies).\nFor PCR analysis of RNA, 5 mg of total RNA from transiently transfected cells or 1 mg of polyA^+ RNA were reverse transcribed using random hexamer primers and 200 units of reverse transcriptase (RNAase H^− Superscript, Life Technologies), in a total volume of 20 ml for 1 h at 42° C. Part of this reaction mix (5 ml) was then diluted to a final volume of 50 ml, the concentrations of the buffer and dNTPs were adjusted for PCR and the mixture was amplified for 22 cycles. The conditions were: for the endogenous gene, denaturation at 94° C. for 1 min, annealing at 58° C. for 1 min, extension at 72° C. for 1 min; for the constructs, denaturation at 94° C. for 1 min, annealing at 65° C. for 1 min, extension at 72° C. for 1 min.\nThe primer pair used for the endogenous exon 10 pattern was HT9SmS/1017HT (Table 2b). In the case of transfected cells, the primers INS1 and INS3 (Table 2b) were chosen to only amplify products arising from the constructs.\nThe RT-PCR experiments were done twice with the polyA^+ RNAs and with total RNAs from three independent transfections, to ensure reproducibility. […] In FIGS. 1-4, the percent of the 10^+ isoform was calculated by scanning the bands from three independent transfections and measuring the areas under the curves (by the IPLab Gel program from Scanalytics).\nRT-PCR was performed in a manner as described in Example 4 (using primer pair: INS1/INS3), except that-mammalian cells were analyzed which had been 1:1 co-transfected with tau exon 10 containing minigene constructs (denoted SV 10) and with plasmids containing cDNA of various plicing regulators. […]", "values": [
      {"molecule": "SRp75: serine/arginine-rich (SR) protein splicing regulator, expressed from cDNA under the CMV promoter (protein, UniProt Q08170 1-494, looked up) Serine/arginine-rich splicing …: MPRVYIGRLSYQARERDVERFFKGYGKILEVDLKNGYGFVEFDDLRDADDAVYELNGKDLCGERVIVEHARGPRRDGSYGSGRSGYGYRRSGRDKYGPPTRTEYRLIVENLSSRCSWQDLKDYMRQAGEVTYADAHKGRKNEGVIEFVSYSDMKRALEKLDGTEVNGRKIRLVEDKPGSRRRRSYSRSRSHSRSRSRSRHSRKSRSRSGSSKSSHSKSRSRSRSGSRSRSKSRSRSQSRSRSKKEKSRSPSKEKSRSRSHSAGKSRSKSKDQAEEKIQNNDNVGKPKSRSPSRHKSKSKSRSRSQERRVEEEKRGSVSRGRSQEKSLRQSRSRSRSKGGSRSRSRSRSKSKDKRKGRKRSREESRSRSRSRSKSERSRKRGSKRDSKAGSSKKKKKEDTDRSQSRSPSRSVSKEREHAKSESSQREGRGESENAGTNQETRSRSRSNSKSKPNLPSESRSRSKSASKTRSRSKSRSRSASRSPSRSRSRSHSRS", "effect on tau exon 10 inclusion (10+/10- isoform ratio by RT-PCR)": "inhibited"},
      {"molecule": "U2AF65: constitutive splicing factor, expressed from cDNA under the CMV promoter (protein, UniProt P26368 2-475, looked up) Splicing factor U2AF 65 kDa …: SDFDEFERQLNENKQERDKENRHRKRSHSRSRSRDRKRRSRSRDRRNRDQRSASRDRRRRSKPLTRGAKEEHGGLIRSPRHEKKKKVRKYWDVPPPGFEHITPMQYKAMQAAGQIPATALLPTMTPDGLAVTPTPVPVVGSQMTRQARRLYVGNIPFGITEEAMMDFFNAQMRLGGLTQAPGNPVLAVQINQDKNFAFLEFRSVDETTQAMAFDGIIFQGQSLKIRRPHDYQPLPGMSENPSVYVPGVVSTVVPDSAHKLFIGGLPNYLNDDQVKELLTSFGPLKAFNLVKDSATGLSKGYAFCEYVDINVTDQAIAGLNGMQLGDKKLLVQRASVGAKNATLVSPPSTINQTPVTLQVPGLMSSQVQMGGHPTEVLCLMNMVLPEELLDDEEYEEIVEDVRDECSKYGLVKSIEIPRPVDGVEVPGCGKIFVEFTSVFDCQKAMQGLTGRKFANRVVVTKYCDPDSYHRRDFW", "effect on tau exon 10 inclusion (10+/10- isoform ratio by RT-PCR)": "inhibited"},
      {"molecule": "hSWAP: specific splicing regulator Suppressor of White Apricot, expressed from the SV40 early promoter (protein, UniProt Q12872 1-951, looked up) Splicing factor, suppressor …: MYGASGGRAKPERKSGAKEEAGPGGAGGGGSRVELLVFGYACKLFRDDERALAQEQGQHLIPWMGDHKILIDRYDGRGHLHDLSEYDAEYSTWNRDYQLSEEEARIEALCDEERYLALHTDLLEEEARQEEEYKRLSEALAEDGSYNAVGFTYGSDYYDPSEPTEEEEPSKQREKNEAENLEENEEPFVAPLGLSVPSDVELPPTAKMHAIIERTASFVCRQGAQFEIMLKAKQARNSQFDFLRFDHYLNPYYKFIQKAMKEGRYTVLAENKSDEKKKSGVSSDNEDDDDEEDGNYLHPSLFASKKCNRLEELMKPLKVVDPDHPLAALVRKAQADSSTPTPHNADGAPVQPSQVEYTADSTVAAMYYSYYMLPDGTYCLAPPPPGIDVTTYYSTLPAGVTVSNSPGVTTTAPPPPGTTPLPPPTTAETSSGATSTTTTTSALAPVAAIIPPPPDVQPVIDKLAEYVARNGLKFETSVRAKNDQRFEFLQPWHQYNAYYEFKKQFFLQKEGGDSMQAVSAPEEAPTDSAPEKPSDAGEDGAPEDAAEVGARAGSGGKKEASSSKTVPDGKLVKASFAPISFAIKAKENDLLPLEKNRVKLDDDSDDDEESKEGQESSSSAANTNPAVAPPCVVVEEKKPQLTQEELEAKQAKQKLEDRLAAAAREKLAQASKESKEKQLQAERKRKAALFLQTLKNPLPEAEAGKIEESPFSVEESSTTPCPLLTGGRPLPTLEVKPPDRPSSKSKDPPREEEKEKKKKKHKKRSRTRSRSPKYHSSSKSRSRSHSKAKHSLPSAYRTVRRSRSRSRSPRRRAHSPERRREERSVPTAYRVSRSPGASRKRTRSRSPHEKKKKRRSRSRTKSKARSQSVSPSKQAAPRPAAPAAHSAHSASVSPVESRGSSQERSRGVSQEKEAQISSAIVSSVQSKITQDLMAKVRAMLAASKNLQTSAS", "effect on tau exon 10 inclusion (10+/10- isoform ratio by RT-PCR)": "inhibited"}
    ]}
  ]
}
